27 sequences from the supplement of paper PMC9170038 can be followed below.

In the series the test system is MS2 coat protein. Kind of series: apparent KD of MS2 coat protein; designed switch direction (-1 OFF switch, 1 ON switch): 1; higher = weaker reporter binding. The gist of the method:
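The buffer was Tris-HCl pH 7.5 with KCl, MgCl2, BSA, DTT, tRNA and Tween-20. In it, SNAP-549-labelled MS2 coat protein was titrated in doubling steps from 0.7 or 1.5 nM to 3 µM over chip-bound RNA switches transcribed by stalled E. coli RNA polymerase on Illumina chips. Apparent KD is the per-design median over clusters of curve fits to normalised fluorescence.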

Setting [1] is: input ligand: microRNA oligo, concentration not stated.
The mark [2] stands for this setting: Eterna round: R95, input ligand: FMN 200 uM.
The mark [3] stands for this setting: Eterna round: R95, input ligand: microRNA oligo, concentration not stated.
Setting [4] is: Eterna round: R95, input ligand: none.

In the case of “AGUCCAGCCUGAGCUGGACAAAAGCAUGUACAUGAGGAUCACCCAUGUUCAUGUACAAGCUUUUUGCUCGUCUUGCC [salish99_208a_r3_107x] (Eterna round: R96, puzzle: Sensor for hsa-mir-208a)”, the “apparent KD of MS2 coat protein” value is, setting by setting: (input ligand: FMN 200 uM) 774 nM; under setting [1], 15.5 nM; (input ligand: none) 623 nM.
On to “GUAAAACAUGAGGAUCACCCAUGUAAUAAUAUGGGAGGAUAUCAGAAUGUAUGUAUGUAAUGAGAAGGCCUAAAUU [Mat - Same State 1 - Mod of Eli - D75] (puzzle: Same State 1)”, for which the “apparent KD of MS2 coat protein” value was determined as 73.4 nM under setting [2], 610 nM under setting [3] and 695 nM under setting [4].
With “GAGUGGUGGAGAGGAUAUACAUUGAUAUUCACUGUAGAAGGUUCUAACAUGAGGAUCACCCAUGUAGGACUAUUCCUGAGAGUU [Parity 54 - Jieux - Same State NG 1] (Eterna round: R96, puzzle: Same State NG 1)”, the “apparent KD of MS2 coat protein” value (input ligand: FMN 200 uM) is 11 nM, the “apparent KD of MS2 coat protein” value under setting [1] is 8.99 nM and the “apparent KD of MS2 coat protein” value (input ligand: none) came to 14.7 nM.
As for “GUGGUGUAGAUACAGGAUAUGUUGCUCGUAACAUGAGGAUCACCCAUGUAUCUAUGAGAUUAAAUGCAGAAGGGUGCACACCACU [salish99_ss2_r3_086] (puzzle: Same State 2)”, the “apparent KD of MS2 coat protein” value turned out to be 15.7 nM under setting [2], 148 nM under setting [3] and 325 nM under setting [4].
For the sequence “GUAAAACAUGAGGAUCACCCAUGUCAAUGUAGUCGAGGAUAUGGGUAGCUAUGAGGCGUACUAGAAGGCGAAAAGU [Mat - Same State 1 - Mod of JL - D18] (puzzle: Same State 1)”, the “apparent KD of MS2 coat protein” value is 91.8 nM under setting [2], 85.5 nM under setting [3] and 248 nM under setting [4].
Taken in the same sequence, the figures for “AUAAAACAUGAGGAUCACCCAUGUCAACAAAGUCGAGGAUAUGGGCAAAGAAAAUAAUAACCAGAAGGCGAAUAAU [salish99_ss1_r3_054] (puzzle: Same State 1)” were 42.6 nM, 389 nM and 445 nM.
In the case of “CCCUUCGGCACAUGAGGAUCACCCAUGUUUUAGUUGAAGAGGUAGGAUAUGGCUGGGAGCGGAAGCCAGAAGGACCAAGUGAGU [Lareonge] (Eterna round: R96, puzzle: Same State NG 3)”, the “apparent KD of MS2 coat protein” value was determined as 7.76 nM (input ligand: FMN 200 uM), 8.41 nM under setting [1] and 12.6 nM (input ligand: none).
For “UUCCUACAUGAGGAUCACCCAUGUGACGCCUCGAUAGGAUAUGCGUGUGCCUUGGCGCAUGCAGAAGGAUUGUAGC [JL Aveso mod 8] (puzzle: Same State 1)”, the “apparent KD of MS2 coat protein” value runs as follows: under setting [2], 224 nM; under setting [3], 27.6 nM; under setting [4], 21.4 nM.
For “AUUUAACAAGCUUUUUGCUCGUCUUAUAAACAUGAGGAUCACCCAUGUAAUAGCGUGAGAGUAAAUUAUUAAAUAAU [JMF 91] (puzzle: Sensor for hsa-mir-208a)”, the “apparent KD of MS2 coat protein” value is, setting by setting: under setting [2], 13 nM; under setting [3], 39.9 nM; under setting [4], 11.9 nM.
Take “UGCCGGAUACCGACUACAUGAGGAUCACCCAUGUUAUCUCGUUAGGAUAUACUAACAACAGAUUAGUAGAAGGGACGCGGGCUU [Eternabot solution 23] (Eterna round: R96, puzzle: Same State NG 3)”: the “apparent KD of MS2 coat protein” value (input ligand: FMN 200 uM) came to 25.5 nM, the “apparent KD of MS2 coat protein” value under setting [1] is 24.6 nM and the “apparent KD of MS2 coat protein” value (input ligand: none) stood at 30.7 nM.
For the sequence “GUGGAGGGUUGAGGAUAUUGGUUGCAUAUGUUUAACAUGAGGAUCACCCAUGUGGGUUGCGGUUUCGAGAAGGUAGGUUGCUGG [salish99_SSNG2_r04_043] (Eterna round: R96, puzzle: Same State NG 2)”, the “apparent KD of MS2 coat protein” value by setting is: (input ligand: FMN 200 uM) 90.8 nM; under setting [1], 82.2 nM; (input ligand: none) 75.2 nM.
Taken in the same sequence, the figures for “CUGAGCAGUCAAGGAUAUCACGUCGUUUAGACGUGAGAAGGUGACCAAUACAUGAGGAUCACCCAUGUAAUACAUGAAGCUCAG [SSNG1/12-A3] (Eterna round: R96, puzzle: Same State NG 1)” were 16.2 nM, 17.8 nM and 37.2 nM.
With “CCAUAACAGUGAGGAUAUUGUUGCGAUAAGUGACGAGAAGGCAUUCAUGUGAAAUAAACAUACAUGAGGAUCACCCAUGUUGUA [Omei SS(NG)1 Bv2] (Eterna round: R96, puzzle: Same State NG 1)”, the “apparent KD of MS2 coat protein” value runs as follows: (input ligand: FMN 200 uM) 17.9 nM; under setting [1], 19.8 nM; (input ligand: none) 26.7 nM.
Consider “GGAAGGAGGUCAGGAUAUGAACGGAAGGUACAUGAGGAUCACCCAUGUUACGGAGGAAACCCACGUUAGAAGGGACAAGGAAGG [AK SSNG2-V2-4] (Eterna round: R96, puzzle: Same State NG 2)”, for which the “apparent KD of MS2 coat protein” value runs as follows: (input ligand: FMN 200 uM) 19.6 nM; under setting [1], 15.6 nM; (input ligand: none) 30.5 nM.
As to “UGUAAACAUGAGGAUCACCCAUGUUUUUUCAUGGGAGGAUAUCUGAGUUAAGUAUAUUAAGGAGAAGGCCUAUUGU [× ×•×ª×• ×ž×“×™× ×” × ×—×ª-02] (puzzle: Same State 1)”, the “apparent KD of MS2 coat protein” value under setting [2] stood at 83.8 nM, the “apparent KD of MS2 coat protein” value under setting [3] is 78 nM and the “apparent KD of MS2 coat protein” value under setting [4] was 286 nM.
With “AUAAAACAUGAGGAUCACCCAUGUCAACAAUGUCGAGGAUAUGGGCAAAUAAAAUAAGAACCAGAAGGCGAAUAAU [salish99_ss1_r3_039] (puzzle: Same State 1)”, the “apparent KD of MS2 coat protein” value by setting is: under setting [2], 43.2 nM; under setting [3], 248 nM; under setting [4], 507 nM.
Take “GCCAACACAUGAGGAUAUGGCACCUUAUUGGUGCCAGAAGGCAUGUCUAUUGACAUGAGGAUCACCCAUGUAUUAUAGUUGGCA [Fiskers NG1ss - 14] (Eterna round: R96, puzzle: Same State NG 1)”: the “apparent KD of MS2 coat protein” value worked out at 75.2 nM (input ligand: FMN 200 uM), 214 nM under setting [1] and 1210 nM (input ligand: none).
Regarding “GGUCGGACCUACAUGAGGAUCACCCAUGUUCCGGAAACGGCACAGGAUAUCUGUCCGAAAAGGUCAGAGAAGGGUGAACCGACC [Fiskers NG3ss - 75] (Eterna round: R96, puzzle: Same State NG 3)”, the “apparent KD of MS2 coat protein” value (input ligand: FMN 200 uM) came to 1000 nM, the “apparent KD of MS2 coat protein” value under setting [1] is 508 nM and the “apparent KD of MS2 coat protein” value (input ligand: none) is 1880 nM.
Taken in the same sequence, the figures for “GCUCGAUGUGUUGUCUACAUGAGGAUCACCCAUGUAGGUGCGGAGGAUAUCUACGUGCUUUAUGUAGAGAAGGUCGUAUCGAGC [SameState NG3 #86] (Eterna round: R96, puzzle: Same State NG 3)” were 21.5 nM, 54.3 nM and 71.4 nM.
Taken in the same sequence, the figures for “UGAUCGCUUGGAGGAUAUCCAACUAUCCUAGUUGGAGAAGGCCAAGCUACAGAGCUAAGCUUGGAAGUCACUUCGAAUCAACAC [pwkr ssNG1 F9.4] (Eterna round: R96, puzzle: Same State NG 1)” were 2.23 nM, 129 nM and 155 nM.
As for “AGCGUCCACACAGGAUAUCACCUGCACUGCAGGUGAGAAGGGUGACCGGUGCGCAAUAACGACAUGAGGAUCACCCAUGUAAAA [Vegea] (Eterna round: R96, puzzle: Same State NG 1)”, the “apparent KD of MS2 coat protein” value is 775 nM (input ligand: FMN 200 uM), 38.3 nM under setting [1] and 143 nM (input ligand: none).
“GAGUGGCAGUUAGGAUAUACAGUGAUAAUGAUAGUAGAAGGAACUGACAUGAGGAUCACCCAUGUAGGACUAAUCCAGAGAGAG [Parity 32 - Jieux - Same State NG 1] (Eterna round: R96, puzzle: Same State NG 1)”: the “apparent KD of MS2 coat protein” value by setting is: (input ligand: FMN 200 uM) 92.3 nM; under setting [1], 21.2 nM; (input ligand: none) 31.5 nM.
Consider “AUCCUACAUGAGGAUCACCCAUGUGACGCCUCAAUAGGAUAUCGGGCCCACAGUCAGGAACGAGAAGGAUUGAAGC [Digerier] (puzzle: Same State 1)”, for which the “apparent KD of MS2 coat protein” value by setting is: under setting [2], 67.5 nM; under setting [3], 29.3 nM; under setting [4], 66.7 nM.
Consider “AAAAGAAACACAGGAUAUACCGCACUUAACGCGGUAGAAGGGUGGGACAUGAGGAUCACCCAUGUGGCCUAAGCGCCAGGCCGC [Tibiorvela] (Eterna round: R96, puzzle: Same State NG 1)”, for which the “apparent KD of MS2 coat protein” value was determined as 3890 nM (input ligand: FMN 200 uM), 13.1 nM under setting [1] and 211 nM (input ligand: none).
Take “GGAGGACAUGAGGAUCACCCAUGUGGAUGGGCGCUAGGAUAUGCGAGAGGGAAGAGUGGAGCAGAAGGAGUGGGUU [JR_SS1_Sub044] (puzzle: Same State 1)”: under setting [3], the “apparent KD of MS2 coat protein” value is 40 nM.
Take “GAGUAGUUGAAAGGAUAUGGAUUAUUGUAGGAUCCAGAAGGUUUUAACAUGAGGAUCACCCAUGUAGGACUAUAUAUGUGAAUA [Parity 96 - Jieux - Same State NG 1] (Eterna round: R96, puzzle: Same State NG 1)”: the “apparent KD of MS2 coat protein” value was 15.3 nM (input ligand: FMN 200 uM), 10.2 nM under setting [1] and 15.4 nM (input ligand: none).
Turning to “AAGUUAAGCUUUUUGUUCUGCCUAUUCUGACAUGAGGAUCACCCAUGUGGUCGAACGACUACGUGUGUAGUUGAGAU [JR_SHM208A_Sub030] (puzzle: Sensor for hsa-mir-208a)”, the “apparent KD of MS2 coat protein” value runs as follows: under setting [2], 174 nM; under setting [3], 252 nM; under setting [4], 278 nM.
